Residue numbers refer to the chain shown, from its start.
T1: MBP-HY5 (Arabidopsis thaliana, UniProt O24646 1-168)
T1 sequence: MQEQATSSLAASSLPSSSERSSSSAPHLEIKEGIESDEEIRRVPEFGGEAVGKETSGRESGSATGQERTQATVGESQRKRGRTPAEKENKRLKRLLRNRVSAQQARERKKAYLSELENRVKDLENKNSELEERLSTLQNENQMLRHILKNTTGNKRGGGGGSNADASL

B1: P2 (STOMAGEN promoter) (dsDNA)
DNA 1: TCCTCTGTATTTTCAAACTCTTATCTCTACGTGTGCACAAACCTCACCATTAGATGATAA
DNA 2: TTATCATCTAATGGTGAGGTTTGTGCACACGTAGAGATAAGAGTTTGAAAATACAGAGGA
B2: mP2 (Z-box mutated) (dsDNA)
DNA 1: B1 DNA 1 with T28A, C30A, G31A, T32A, G33A
DNA 2: B1 DNA 2 with C28T, A29T, C30T, G31T, A33T

Legend:
[1] = target: T1, MBP-HY5; assay: EMSA; EMSA: 20 fmol biotin probe, ~1 ug protein, 20 ul binding buffer (composition not given), on ice 1 h; pull-down: 10 mM Tris-HCl pH 7.5, 50 mM KCl, 5 mM MgCl2, 2.5% glycerol, 0.05% NP-40, 5 ug salmon sperm DNA, 10 ug BSA, 4 C 1 h; conditions: protein: recombinant; tags: N-terminal MBP (pETG-40A); chain copies: 2; blunt
[2] = target: T1, MBP-HY5; assay: pull-down; 5 mM MgCl2; salmon sperm DNA; EMSA: 20 fmol biotin probe, ~1 ug protein, 20 ul binding buffer (composition not given), on ice 1 h; pull-down: 10 mM Tris-HCl pH 7.5, 50 mM KCl, 5 mM MgCl2, 2.5% glycerol, 0.05% NP-40, 5 ug salmon sperm DNA, 10 ug BSA, 4 C 1 h; conditions: protein: recombinant; tags: N-terminal MBP (pETG-40A); chain copies: 2; blunt

Binder	binding result [1]	binding result [2]
B1	binds	–
B2	–	no binding
